The Human Domainome abundance scans (Beltran et al. 2025)

B1: Protein C-ets-1, residues 55 to 135; numbered along this chain, P14921 (parent)
chain: GFTKEQQRLGIPKDPRQWTETHVRDWVMWAVNEFSLKGVDFQKFCMNGAALCALGKDCFLELAPDFVGDILWEHLEILQKE

Variants of: B1
Assay: abundance fitness (aPCA) (normalised: wild type 0, dead -1); higher = more abundant; growth selection in yeast, the domain comes from the species named
Conditions: Homo sapiens

Abundance fitness, by site and new letter:
L71: P -0.891; M -0.176; A -1.15; W -0.946; F -0.697; N -0.128; S -0.805; C -0.834; K -0.978; E -0.881; Q -0.938; R -0.979; D -0.657; G -0.932; V -1.05; T -0.883
W72: M -0.389; V -0.918; F -0.098; N -0.746; Q -0.804; C -0.62; A -0.52; L -0.316; P -1.15; T -1; R -0.577; D -1.07; S -0.735; Y 0.11; H -0.361; I -1.06
V67: D -0.138; H -0.284; R -0.167; W -0.414; Y -0.319; C -0.04; K -0.305; F -0.267; T -0.057; A -0.062; Q -0.069; E 0.081; L -0.256; N -0.242; S -0.002; G -0.018; I -0.159
C58: W -0.101; D 0.056; F -0.096; E 0.05; Y 0.008; L -0.026; I -0.094; H 0.039; R 0.023; M -0.009; G 0.049; A 0.049; K -0.007; S 0.035; Q 0.045; V 0.018; T 0.016; N 0.033
F66: K 0.053; D 0.051; P 0.048; N 0.073; M -0.032; A 0.02; T 0.037; L -0.022; C -0.031; R 0.033; H 0.095; S 0.036; E -0.002; I 0.021
K56: T -0.878; L -0.635; W -0.729; G -0.851; M -0.357; D -0.979; C -0.814; V -0.558; F -0.865; S -0.7; H -0.033; P -0.493; R -0.004; I -0.702; Y -0.134
D65: P 0.076; C -0.057; M -0.019; G 0.024; W -0.311; L -0.09; K -0.01; I -0.008; H -0.09; F -0.221; N 0.084; V -0.043; E 0.01; A 0.004; T 0.027; S 0.006; Y -0.04
G68: Y -0.654; Q -0.727; A -0.116; N -0.265; V -0.261; K -0.678; H -0.541; D -0.792; S -0.124; C -0.156; E -0.994; T -0.204; W -0.655; L -0.549
L75: I -0.21; H -0.914; T -1.02; V -0.721; M -0.169; Y -0.62; A -0.921; N -0.697; D -0.91; W -0.097; R -0.863; G -0.935; S -0.796; E -0.952; C -0.964; K -0.466; P -0.898
E61: P -0.234; H -0.089; C -0.202; W -0.908; S -0.011; L -0.248; A -0.012; K 0.066; R -0.033; N -0.022; I -0.685; F -0.772; Y -0.908; V -0.52; D -0.013; M -0.286
A63: Y -0.299; W -0.014; K -0.635; I -0.038; G -0.262; N -0.399; M -0.115; H -0.096; Q -0.282; T -0.134; R -0.924; C 0.02; L -0.016; P -1.01; V 0.007; D -0.873; S -0.114
E73: W -0.142; C -0.252; G -0.08; Y -0.319; V -0.546; I -0.651; M -0.277; L -0.246; H -0.315; F -0.251; A -0.079; P -0.898; Q -0.032; R -0.088; D 0.04; T -0.19; K 0.004
L60: Q 0.027; A -0.009; H -0.052; K 0.043; C -0.091; M -0.067; R -0.042; T 0.001; F -0.087; W -0.43; D -0.23; G -0.1; Y -0.058; E -0.113; P -0.628; N -0.117
P64: Q -0.288; H -0.34; E -0.239; T -0.194; G 0.032; K -0.6; W -0.938; Y -0.728; L -0.861; M -1.06; F -0.896; I -0.891; N -0.296; V -0.836; S -0.202
H74: C -0.137; V -0.419; G -0.346; R -0.222; K -0.273; Y -0.454; Q -0.02; S -0.08; F -0.4; E -0.027; M -0.271; A -0.135; L -0.198; N -0.043; D -0.214; P -0.794; W -0.611; T -0.265
L62: A -0.434; I -0.049; H -0.438; N -0.419; V -0.34; Y -0.141; E -0.655; P -0.954; F -0.298; R -0.103; D -0.968; Q -0.3; S -0.401; K -0.195; C -0.265; G -0.461
D69: Q -0.03; R -0.09; G -0.059; I -0.038; F -0.301; M -0.055; V -0.098; A -0.031; C -0.167; Y -0.038; W -0.262; N -0.002; K -0.057; T -0.134; L -0.057; P 0.015; E -0.035; H -0.153; S -0.053
F59: S -0.918; W -0.318; K -0.882; T -0.963; G -0.95; C -0.65; Q -0.836; M -0.239; E -0.944; A -0.928; Y -0.869; I -0.414; D -0.782; L -0.252; R -0.496; P -0.984; H -0.953; N -0.494; V -0.467
D57: F -0.303; V -0.097; R -0.063; M -0.158; K 0.017; L -0.216; G -0.083; I -0.185; P -0.109; C -0.106; N -0.02; Q -0.073; A -0.049; T -0.058; S -0.027; Y -0.326; E 0.001; H -0.049; W -0.464
I70: F -0.17; T -0.008; M -0.102; Y -0.146; P -0.289; S -0.228; D -0.532; K -0.065; G -0.705; C -0.088; R -0.036; V -0.038; A -0.105; L -0.077; N -0.546; W -0.398; E -0.365; Q -0.035
